Measurements reported in the supplement of paper PMC7877785.
± gives the uncertainty stated by the source.

Experiment: self-splicing fitness, log relative to wild type (ln ratio); higher = more splicing; Tetrahymena group I intron in knt gene, E. coli kanamycin selection, DiMSum; sequences stand for … in CUCUCU…GGAGGGAAAAGUUAUCAGGCAUGCACCUGGUAGCUAGUCUUUAAACCAAUAGAUUGCAUCGGUUUAAAAGGCAAGACCGUCAAAUUGCGGGAAAGGGGUCAACAGCCGUUCAGUACCAAGUCUCAGGGGAAACUUUGAGAUGGCCUUGCAAAGGGUAUGGUAAUAAGCUGACGGACAUGGUCCUAACCACGCAGCCAAGUCCUAAGUCAACAGAUCUUCUGUUGAUAUGGAUGCAGUUCACAGACUAAAUGUCGGUCGGGGAAGAUGUAUUCUUCUCAUAAGAUAUAGUCGGACCUCUCCUUAAUGGGAGCUAGCGGAUGAAGUGAUGCAACACUGGAGCCGCUGGGAACUAAUUUGUAUGCGAAAGUAUAUUGAUUAGUUUUGGAGUACUCGUGGUCG
Method in brief: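 Library with all eight P1ex-region intron nucleotides randomised, intron inside the knt kanamycin-resistance gene on pET-22b(+), in E. coli BL21(DE3). Cells grew overnight at 37°C or 30°C on LB agar with or without 25 μg/mL kanamycin (plus 100 μg/mL carbenicillin, 50 μM IPTG, 0.2% rhamnose), in six replicate transformations. Pooled colonies were amplicon-sequenced on Illumina HiSeq 2500. DiMSum fitness is the error-weighted combination of wild-type-normalised replicate fold changes, kanamycin versus none.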

Row | Sequence | self-splicing fitness (ln) (30 °C) | self-splicing fitness (ln) (37 °C)
1 | GCAAAGCAAUAUUACGAUCU | -0.767 ± 0.087 | -0.252 ± 0.099
2 | AAUAAGCAAUAUUACGAAAG | -3.68 ± 0.27 | -1.37 ± 0.22
3 | CAUUAGCAAUAUUACGGCUC | -3.78 ± 0.28 | -1.39 ± 0.18
4 | CCCGAGCAAUAUUACGUGGC | – | -3.58 ± 0.25
5 | CGCGAGCAAUAUUACGAGAU | -2.7 ± 0.28 | -2.19 ± 0.26
6 | CCAAAGCAAUAUUACGAGGU | -4.24 ± 0.2 | -1.71 ± 0.13
7 | AUGUAGCAAUAUUACGGACA | -0.611 ± 0.083 | 0.202 ± 0.12
8 | UAACAGCAAUAUUACGAGAG | -3.21 ± 0.18 | -2.46 ± 0.13
9 | AGGAAGCAAUAUUACGGCGG | -1.34 ± 0.085 | -0.207 ± 0.11
10 | CUGAAGCAAUAUUACGUUUU | -3.46 ± 0.2 | -3.22 ± 0.17
11 | CGGCAGCAAUAUUACGCCCC | -1.66 ± 0.31 | -0.44 ± 0.36
12 | GACCAGCAAUAUUACGGGAA | -0.695 ± 0.06 | -0.941 ± 0.067
13 | GACUAGCAAUAUUACGUUCG | -3.18 ± 0.22 | -0.787 ± 0.13
14 | GUAAAGCAAUAUUACGAUCU | 0.147 ± 0.057 | 0.161 ± 0.069
15 | UACCAGCAAUAUUACGGUCG | -0.769 ± 0.064 | 0.485 ± 0.091
16 | GGCGAGCAAUAUUACGGAGC | – | -2.17 ± 0.37
17 | GUCAAGCAAUAUUACGAUGG | -4.88 ± 0.38 | -3.68 ± 0.27
18 | AAUGAGCAAUAUUACGAACU | -1.11 ± 0.14 | -0.57 ± 0.16
19 | AUGGAGCAAUAUUACGGGAA | -2.71 ± 0.2 | -2.33 ± 0.17
20 | CUGCAGCAAUAUUACGUGCC | -2.23 ± 0.21 | -2.26 ± 0.26
21 | AGUAAGCAAUAUUACGGUUA | -0.833 ± 0.11 | -0.477 ± 0.092
22 | ACCUAGCAAUAUUACGUGGA | -2.36 ± 0.093 | -1.62 ± 0.084
23 | UCUAAGCAAUAUUACGUCCG | -0.454 ± 0.15 | -0.55 ± 0.14
24 | GCUCAGCAAUAUUACGUUCG | -1.13 ± 0.065 | -0.838 ± 0.074
25 | CCUUAGCAAUAUUACGCAAU | -3.51 ± 0.23 | -1.47 ± 0.23

Row | Sequence | self-splicing fitness (ln) (30 °C) | self-splicing fitness (ln) (37 °C)
26 | GUUAAGCAAUAUUACGGGAA | -1.87 ± 0.34 | -1.86 ± 0.29
27 | GUCUAGCAAUAUUACGCAAG | – | -1.66 ± 0.38
28 | ACCUAGCAAUAUUACGUAUA | -1.6 ± 0.1 | -1.46 ± 0.12
29 | CACAAGCAAUAUUACGACUC | -1.97 ± 0.11 | -0.998 ± 0.12
30 | GAGAAGCAAUAUUACGCUCU | -3.26 ± 0.35 | -2.25 ± 0.44
31 | CUAUAGCAAUAUUACGUAAA | -3.63 ± 0.24 | –
32 | CUCGAGCAAUAUUACGAUGC | -4.39 ± 0.46 | -3 ± 0.47
33 | UGGUAGCAAUAUUACGGUCU | -0.135 ± 0.21 | -0.457 ± 0.33
34 | CCAUAGCAAUAUUACGAGUU | -3.76 ± 0.36 | -2.1 ± 0.31
35 | AUUCAGCAAUAUUACGUUUA | -1.18 ± 0.12 | -0.911 ± 0.11
36 | GGCAAGCAAUAUUACGUGUG | -0.694 ± 0.062 | -0.126 ± 0.071
37 | GGAAAGCAAUAUUACGUGUG | -2.41 ± 0.087 | -0.505 ± 0.078
38 | UCCAAGCAAUAUUACGUCUA | -2.26 ± 0.13 | -0.9 ± 0.11
39 | UCCGAGCAAUAUUACGAUAG | -3.72 ± 0.24 | -2.22 ± 0.2
40 | GGGAAGCAAUAUUACGGACC | -3.81 ± 0.4 | -2.35 ± 0.46
41 | UUUGAGCAAUAUUACGGCUC | -2.38 ± 0.42 | -1.39 ± 0.46
42 | CCGCAGCAAUAUUACGGCGC | – | -0.961 ± 0.22
43 | CUAUAGCAAUAUUACGGGCA | -3.19 ± 0.26 | -1.89 ± 0.18
44 | UCUCAGCAAUAUUACGGCAC | -2.33 ± 0.24 | -1.79 ± 0.38
45 | UGUGAGCAAUAUUACGCAAC | -2.24 ± 0.28 | -2.4 ± 0.46
46 | CCGUAGCAAUAUUACGCAUA | -2.31 ± 0.19 | -2.12 ± 0.33
47 | GAGAAGCAAUAUUACGGGUG | -1.72 ± 0.15 | -1.88 ± 0.14
48 | ACAAAGCAAUAUUACGAGCU | -0.866 ± 0.066 | -0.624 ± 0.097
49 | UAUUAGCAAUAUUACGCGUG | -0.538 ± 0.055 | -0.463 ± 0.065
